Data: PMC10839757

Experiments:
Assay in all cases: purified protein
purified protein [1] = substrate: NNC(=O)c1ccncc1; details: pH 7.5
purified protein [2] = substrate: COc1cc(-c2ccc(N)c(OC)c2)ccc1N; details: pH 5.5
purified protein [3] = substrate: NC(=O)c1ccc[n+]([C@@H]2O[C@H](COP(=O)(O)OP(=O)(O)OC[C@H]3O[C@@H](n4cnc5c(N)ncnc54)[C@H](O)[C@@H]3O)[C@@H](O)[C@H]2O)c1; details: pH 7.5

B1: WT-KatG (Mt-KatG, Mycobacterium tuberculosis catalase-peroxidase) (Mycobacterium tuberculosis H37Rv) (protein)
chain: MPEQHPPITETTTGAASNGCPVVGHMKYPVEGGGNQDWWPNRLNLKVLHQNPAVADPMGAAFDYAAEVATIDVDALTRDIEEVMTTSQPWWPADYGHYGPLFIRMAWHAAGTYRIHDGRGGAGGGMQRFAPLNSWPDNASLDKARRLLWPVKKKYGKKLSWADLIVFAGNCALESMGFKTFGFGFGRVDQWEPDEVYWGKEATWLGDERYSGKRDLENPLAAVQMGLIYVNPEGPNGNPDPMAAAVDIRETFRRMAMNDVETAALIVGGHTFGKTHGAGPADLVGPEPEAAPLEQMGLGWKSSYGTGTGKDAITSGIEVVWTNTPTKWDNSFLEILYGYEWELTKSPAGAWQYTAKDGAGAGTIPDPFGGPGRSPTMLATDLSLRVDPIYERITRRWLEHPEELADEFAKAWYKLIHRDMGPVARYLGPLVPKQTLLWQDPVPAVSHDLVGEAEIASLKSQIRASGLTVSQLVSTAWAAASSFRGSDKRGGANGGRIRLQPQVGWEVNDPDGDLRKVIRTLEEIQESFNSAAPGNIKVSFADLVVLGGCAAIEKAAKAAGHNITVPFTPGRTDASQEQTDVESFAVLEPKADGFRNYLGKGNPLPAEYMLLDKANLLTLSAPEMTVLVGGLRVLGANYKRLPLGVFTEASESLTNDFFVNLLDMGITWEPSPADDGTYQGKDGSGKVKWTGSRVDLVFGSNSELRALVEVYGADDAQPKFVQDFVAAWDKVMNLDRFDVR
Km (purified protein [1]): 1900 ± 100 µM | kcat/Km (purified protein [1]): 50.6 M⁻¹ s⁻¹ | Km (purified protein [2]): 2.1 ± 0.8 µM | kcat/Km (purified protein [2]): 3.1e+06 M⁻¹ s⁻¹ | Km (purified protein [3]): 210 ± 40 µM | kcat/Km (purified protein [3]): 443 M⁻¹ s⁻¹
